Changes are numbered by the printed parent chain. Starred links: 1 amine or outer side, 2 acyl side, 3 side chain; linkers in the order of their positions; H or OH if unused. Positions of bridges follow the written chain, without caps; N, C: chain ends. Non-standard residues stand in square brackets, D forms with d. Chains are numbered I, II in the order given. No end group written: not given here. dLys(PYA) = D-lysine Nε-acylated with 4-pentynoic acid, clicked (triazole) to the linker azide, O=C(CCc1cn([*:3])nn1)NCCCC[C@@H](N[*:1])C(=O)[*:2]; TATA = O=C(CC[*:1])N1CN(C(=O)CC[*:2])CN(C(=O)CC[*:3])C1; 1Nal = N[C@@H](Cc1cccc2ccccc12)C(=O)O; Hyp = O=C(O)[C@@H]1C[C@@H](O)CN1; hArg = N=C(N)NCCCC[C@H](N)C(=O)O; tBuAla = CC(C)(C)C[C@H](N)C(=O)O; Nle = CCCC[C@H](N)C(=O)O
Key:
[1] = target: T1, Nectin-1 (2880-N1, R&D Systems) (UniProt Q15223 31-334, limits assumed, biotinylated); experiment: SPR, biotinylated target on streptavidin surface
T1 sequence (looked up): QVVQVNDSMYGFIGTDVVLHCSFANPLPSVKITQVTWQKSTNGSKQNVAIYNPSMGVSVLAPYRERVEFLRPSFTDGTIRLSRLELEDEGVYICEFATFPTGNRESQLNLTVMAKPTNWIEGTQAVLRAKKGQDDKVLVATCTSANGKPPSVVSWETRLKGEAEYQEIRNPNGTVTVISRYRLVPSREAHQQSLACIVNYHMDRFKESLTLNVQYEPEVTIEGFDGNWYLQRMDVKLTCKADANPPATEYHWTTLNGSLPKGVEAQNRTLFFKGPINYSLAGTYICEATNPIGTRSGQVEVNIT

[2] = target: T2, Nectin-2 (2229-N2, R&D Systems) (UniProt Q92692 32-360, limits assumed, biotinylated); experiment: SPR, biotinylated target on streptavidin surface
T2 sequence (looked up): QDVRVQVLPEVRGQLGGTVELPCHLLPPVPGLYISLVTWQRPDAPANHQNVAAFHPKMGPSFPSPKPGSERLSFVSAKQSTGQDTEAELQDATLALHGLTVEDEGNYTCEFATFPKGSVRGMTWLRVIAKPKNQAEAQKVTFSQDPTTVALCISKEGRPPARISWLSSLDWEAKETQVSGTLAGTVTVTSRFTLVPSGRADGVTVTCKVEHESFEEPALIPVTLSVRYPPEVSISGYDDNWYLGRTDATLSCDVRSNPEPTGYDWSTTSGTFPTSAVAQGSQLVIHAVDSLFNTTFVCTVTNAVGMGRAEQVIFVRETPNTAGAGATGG

[3] = target: T3, Nectin-like-1 (3678-S4-050, R&D Systems) (UniProt Q8N126 25-330, biotinylated); experiment: SPR, biotinylated target on streptavidin surface
T3 sequence (looked up): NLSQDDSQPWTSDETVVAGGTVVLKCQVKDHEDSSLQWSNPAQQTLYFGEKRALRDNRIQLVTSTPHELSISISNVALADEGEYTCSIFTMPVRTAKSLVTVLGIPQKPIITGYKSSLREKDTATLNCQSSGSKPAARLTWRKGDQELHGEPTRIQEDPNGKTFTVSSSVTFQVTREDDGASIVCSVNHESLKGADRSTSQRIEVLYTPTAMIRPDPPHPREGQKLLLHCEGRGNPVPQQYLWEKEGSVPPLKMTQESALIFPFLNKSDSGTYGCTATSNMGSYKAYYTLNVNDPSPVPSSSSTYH

[4] = target: T4, rat CD137 extracellular domain (rat, UniProt Q4W8J3 24-189); experiment: SPR dual binding, BCY11863 captured on biotinylated human Nectin-4, n = 2
T4 sequence: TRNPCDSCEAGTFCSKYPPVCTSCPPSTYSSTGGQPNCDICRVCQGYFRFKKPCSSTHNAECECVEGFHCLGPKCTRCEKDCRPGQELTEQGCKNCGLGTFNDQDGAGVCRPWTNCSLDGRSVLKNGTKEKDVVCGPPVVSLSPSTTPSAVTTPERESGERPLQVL

[5] = target: T5, mouse CD137 extracellular domain (mouse, UniProt P20334 24-187); experiment: as above
T5 construct: extracellular domain
T5 sequence (looked up): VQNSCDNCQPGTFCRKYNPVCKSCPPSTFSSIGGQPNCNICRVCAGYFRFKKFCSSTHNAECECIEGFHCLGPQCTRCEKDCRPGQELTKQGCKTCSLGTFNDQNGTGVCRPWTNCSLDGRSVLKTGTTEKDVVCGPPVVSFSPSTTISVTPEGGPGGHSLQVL

[6] = target: T6, human Nectin-4 extracellular domain (human, UniProt Q96NY8 32-349, biotinylated where captured on the streptavidin chip); experiment: SPR direct binding, biotinylated Nectin-4 ECD on streptavidin chip, 25° C., n = 7
T6 construct: extracellular domain; also called Nectin-4 (human); Biotinylated - Nectin-4 extracellular domain
T6 sequence (looked up): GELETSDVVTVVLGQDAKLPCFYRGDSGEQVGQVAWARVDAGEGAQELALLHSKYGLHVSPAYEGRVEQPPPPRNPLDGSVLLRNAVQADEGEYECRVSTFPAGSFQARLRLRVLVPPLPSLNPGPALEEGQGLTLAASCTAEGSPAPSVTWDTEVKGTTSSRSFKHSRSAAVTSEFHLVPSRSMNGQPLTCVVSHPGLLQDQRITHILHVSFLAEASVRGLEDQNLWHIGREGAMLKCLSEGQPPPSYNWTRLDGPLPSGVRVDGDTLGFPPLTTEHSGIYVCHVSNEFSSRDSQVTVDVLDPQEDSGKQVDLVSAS

[7] = target: T7, cyno (NHP) Nectin-4 extracellular domain (cyno (NHP), UniProt A0A2K5WES1 32-349, biotinylated where captured on the streptavidin chip); experiment: SPR direct binding, biotinylated Nectin-4 ECD on streptavidin chip, 25° C., n = 9
T7 construct: extracellular domain
T7 sequence: T6 sequence (looked up) with V39A, I230V

[8] = target: T8, mouse Nectin-4 extracellular domain (mouse, UniProt Q8R007 31-347, biotinylated where captured on the streptavidin chip); experiment: as above
T8 construct: extracellular domain
T8 sequence (looked up): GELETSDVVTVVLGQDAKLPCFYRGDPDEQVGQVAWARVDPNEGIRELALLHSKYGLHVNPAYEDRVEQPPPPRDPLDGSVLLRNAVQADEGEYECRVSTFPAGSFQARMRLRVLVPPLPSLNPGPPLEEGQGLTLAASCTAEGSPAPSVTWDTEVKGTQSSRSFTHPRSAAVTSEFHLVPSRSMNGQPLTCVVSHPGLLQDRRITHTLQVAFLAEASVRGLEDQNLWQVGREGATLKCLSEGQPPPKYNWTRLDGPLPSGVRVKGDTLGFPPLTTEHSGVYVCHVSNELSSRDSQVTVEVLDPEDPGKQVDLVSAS

B1: heterotandem bicyclic peptide complex BCY11863 (peptide)
peptide 1: CP[1Nal][dD]CM[hArg]DWSTP[Hyp]WC
peptide 2: Ac-C[tBuAla]PE[dLys(PYA)]PYCFADPY[Nle]CA
modifications: linker I:1-I:5-I:15, II:1-II:8-II:15 via TATA; not fully specified (bridges); also: 1:2 complex: BCY8116 + 2x BCY8928
notes: also called Nectin-4/CD137 heterotandem
[1]
  binding result: no binding (tested: 5000 nM)
[2]
  binding result: no binding (tested: 5000 nM)
[3]
  binding result: no binding (tested: 5000 nM)
[4]
  binding result: no binding
[5]
  binding result: no binding
[6]
  Kd: 5 nM
[7]
  Kd: 27 nM
[8]
  Kd: 4.6 nM

— US20230129258A1 (Bicycle, published 2023)
